The values below come from the nanobody polyreactivity screen of Harvey et al. (2022).

The data set can be described thus: yeast display, Sf9 membrane polyspecificity reagent, FACS + sequencing; frameworks hold sequencing errors. In a few lines:
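A synthetic nanobody library was expressed on Saccharomyces cerevisiae BJ5465 by galactose induction for 36–48 hours. The library was stained for 1 hour at 4 °C with 10% biotinylated, detergent-solubilized Sf9 membrane reagent and enriched with streptavidin microbeads before FACS. Low and high (top ~1%) gates were set on anti-HA fluorescence for expression and streptavidin fluorescence for reagent binding, and each polyreactivity label reflects the gate of origin.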
For “QVQLVESGGGLVQAGGSLRLSCAASGSTFYVNTMGWYRQAPGKERELVAAITATGASTYYADSVKGRFTISRDNAKNTVYLQMNSLKPEDTAVYYCNVRLRIRSGYWGQGTQVTVSS”, the “polyreactivity (PSR sort gate)” value is “high polyreactivity”.
For “QVQLVESGGGLVQAGGSLRLSCAASGSTFYVNTMGWYRQAPGKERELVATITASDGSTYADSVKGRFTISRDNAKNTVYLQMNSLKPDDTAVYYCNADTRTQGPYSAPYYREMNYWGQGTQVTVSS”, the “polyreactivity (PSR sort gate)” value is “low polyreactivity”.
For “QVQLVESGGGLVQAGGSLRLSCAASGSTFYVYAMGWYRQAPGKERELVAAISRSGGSTYYADSVKGRFTISRDNAKNTVYLQMNSLKPEDTAVYYCAARGYSTYPMDYWGQGTQVTVSS” the value was “high polyreactivity”; for “QVQLVESGGGLVQAGGSLRLSCAASGSTFYVYAMGWYRQAPGKERELVAAITSGTSTYYADSVKGRFTISRDNAKNTVYLQMNSLKPEDTAVYYCAAYSYYYRFPYYYWGQGTQVTVSS”, “high polyreactivity”; for “QVQLVESGGGLVQAGGSLRLSCAASGSTFYVYAMGWYRQAPGKERELVASINSGGITNYADSVKGRFTISRDNAKNTVYLQMNSLKPEDTAVYYCAARSYKTGRYPQRNKYYYWGQGTQVTVSS”, “high polyreactivity”.
Turning to “QVQLVESGGGLVQAGGSLRLSCAASGSTFYVYAMGWYRQAPGKVREFVATISTSGAITYYADSVKGRFTISRDNAKNTVYLQMNSQKPEDTAVYYCARSGSLLSQVWYNYWGQGTQVTVTS”, the “polyreactivity (PSR sort gate)” value is “low polyreactivity”.
The entry for “QVQLVESGGGLVQAGGSLRLSCAASGSTFYVYDMGCYRQAPGKEREWVAAISSGAGSTYYADSVKGRFTISRDNAKNTVYLQMNSLKRKIPRSITALLFTVNGGGSRSHDYWAQGTQVTVSS” is “low polyreactivity”; for “QVQLVESGGGLVQAGGSLRLSCAASGSTFYVYDMGWYRQAPGKERELVADISWSGGSTYADSVKGRFTISRDNAKNTVYLQMNSLKPEDTAVYYCAATSRPRPYHGGRMYYWGQGTQVTVSS” it is “high polyreactivity”; for “QVQLVESGGGLVQAGGSLRLSCAASGSTFYWNAMGWYRQAPGKESEFVARISSRGGSTYYADSVKGRFTISRDNAKNTVYLQMNSLKPEDTAVYYCAARLRRTQTYSSGRPGDYWGQGTQVTVSS” it is “high polyreactivity”.
The entry for “QVQLVESGGGLVQAGGSLRLSCAASGSTFYWYTMGWYRQAPGKERELVARISSSGSTNYADSVKGRFTISRDNAKNTVYLQMNSLKPEDTAVYYCNKDWIYRGYDYWGQGTQVTVSS” is “high polyreactivity”.
Regarding “QVQLVESGGGLVQAGGSLRLSCAASGSTFYWYTMGWYRQAPGKERELVATITSVGRTNYADSVKGRFTISRDNAKNTVYLQMNSLKPEDTAVYYCAADSYSYRYYYWGQGTQVTVSS”, the “polyreactivity (PSR sort gate)” value is “high polyreactivity”.
The entry for “QVQLVESGGGLVQAGGSLRLSCAASGSTFYYNAMGWYRQAPGKEREFVAAISSRGGSTYYADSVKGRFTISRDNAKNTVYLQMNSLKPEDTAVYYCAAKYRHRYDWGQGTQVTVSS” is “high polyreactivity”; for “QVQLVESGGGLVQAGGSLRLSCAASGSTFYYNAMGWYRQAPGKERELVARISRSGGSTYADSVKGRFTISRDNAKKTVSFQMNSLKPEDTAVYYCNADAYGTQEFTSYAVRYDYWGQGTEVTVSS” it is “low polyreactivity”.
“QVQLVESGGGLVQAGGSLRLSCAASGSTFYYNAMGWYRQAPGKERELVAVINSGGSTYYADSVKGRFTISRDNAKNTVYLQMNSLKPEDTAVYYCARRRRESRQDGDYWGQGTQVTVSS”: the “polyreactivity (PSR sort gate)” value was “high polyreactivity”.
For “QVQLVESGGGLVQAGGSLRLSCAASGSTFYYNAMVWYRQAPGKEREFVASISWRGGRTYYADSVKGRFTISRDNAKNTVYLQMNSLKQEDTAVYYCAKGYLALGQPDDYWGQGTQVTVSS” the value was “high polyreactivity”; for “QVQLVESGGGLVQAGGSLRLSCAASGSTFYYNGMGWYRQAPGKEREFVAAITSSGTSTHYADSVKGRFTISRDNAKNTVYLQMNSLKPEDTAVYYCNRYGAHVSTAYYYWGQGTQVTVSS”, “high polyreactivity”.
